Reference: the supplement of paper PMC9170038

Test system: MS2 coat protein
Assay: apparent KD of MS2 coat protein; designed switch direction (-1 OFF switch, 1 ON switch): -1; higher = weaker reporter binding
How it was run: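 The apparent KD reported per design is the median over clusters of curve fits to normalised cluster fluorescence. The RNA switches were transcribed on Illumina chips by stalled E. coli RNA polymerase. SNAP-549-labelled MS2 coat protein was titrated from 0.7 or 1.5 nM, doubling up to 3 µM, in Tris-HCl pH 7.5 buffer containing KCl, MgCl2, BSA, DTT, tRNA and Tween-20, with no input, 200 uM small-molecule ligand, or an oligonucleotide input.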

[1] = input ligand: microRNA oligo, concentration not stated
[2] = Eterna round: R95, input ligand: microRNA oligo, concentration not stated
[3] = Eterna round: R95, input ligand: FMN 200 uM
[4] = Eterna round: R95, input ligand: none

Sequence | apparent KD of MS2 coat protein [1] [nM] | apparent KD of MS2 coat protein (input ligand: FMN 200 uM) [nM] | apparent KD of MS2 coat protein (input ligand: none) [nM] | apparent KD of MS2 coat protein [2] [nM] | apparent KD of MS2 coat protein [3] [nM] | apparent KD of MS2 coat protein [4] [nM]
ACAUGUAAUGCAGGAUAUUUUACACAUGAGGAUCACCCAUGUGACCAGAGGAAUUGCUAUGAGUAAAAGAAGGGUAUGUACAUG [Ex NG2 #57] (Eterna round: R96, puzzle: Exclusion NG 2) | 53.9 | – | – | – | – | –
GGUCAUCAAGUCAGGAUAUCGUCUAAUCAAUCAGGCGAGAAGGGACAUGAGGAUCACCCAUGUCGACUCAUCAG [Ex4 #6] (Eterna round: R97, puzzle: Brourd's mod of Exclusion 4) | – | 130 | 33.5 | – | – | –
CUUCUCAAAGGAUAUCACGGUAAUAACAUGAGGAUCACCCAUGUGCAAUUCGUGUCCCUGUGAGAAGGUUGAGAAG [Remaor] (Eterna round: R96, puzzle: Exclusion 5) | 11.1 | 19.5 | 13.2 | – | – | –
GGAAGGUGAGGAUAUACUAAGCCGGAAACGGCAGGUGGGAGACAUGAGGAUCACCCAUGUAGAAGGCACGGAGA [AK-MS2ROC-r4-exclusion2-18] (Eterna round: R97, puzzle: Exclusion 2) | – | 703 | 113 | – | – | –
GGGUAACAUGAGGAUCACCCAUGUGAGGAUAUUCUAGGGAUGGAAGCUCGGCCGGCCAGGAGAAGGUACUAAAG [Janelle Amethyst 18 Mod 20 - Jieux - Exclusion 1] (Eterna round: R96, puzzle: Exclusion 1) | 29.6 | 62 | 48.2 | – | – | –
CUUUCGUGAGGAUAUGUGGCUUCGAAAGUGAGAUCGAGGCUACAGAAGGCACAUGAGGAUCACCCAUGUUCCUC [salish99_ex4_r4_214] (Eterna round: R97, puzzle: Exclusion 4) | – | 371 | 28.2 | – | – | –
UUUUUAUAUGAAGGAUAUACUAAACAUGAGGAUCACCCAUGUGGUGUUGUGAGUGAGAGAGAUAAGUAGAAGGUCAAUUAUUUU [JMF's solution 4] (Eterna round: R96, puzzle: Exclusion NG 2) | 62.6 | 348 | 90.8 | – | – | –
GCAGAGCAAGGAUAUACAUGAGGAUCACCCAUGUAAUCUGAAAGGAUUGUAUGGCUCUGUAGAAGGUGCGAAAA [Ederxein] (Eterna round: R97, puzzle: Exclusion 3) | – | 41.9 | 22.7 | – | – | –
AUUAUAUAGACAGGAUAUUGAUUAUUAUUUUAACAUGAGGAUCACCCAUGUAGCCUUAUGUAUAGCAAGAAGGGUCAUUUAUUA [Title] (Eterna round: R96, puzzle: Exclusion NG 2) | 122 | – | – | – | – | –
GGUUAUUGCAAGGAUAUGCUUUUUUUUGAAAUUGCAGAAGGUGCAACAUGAGGAUCACCCAUGUUGGAUGGGUU [JR_E6_Sub018] (Eterna round: R96, puzzle: Exclusion 6) | 161 | 252 | 194 | – | – | –
AACAGGACAGGAUAUACAUGAGGAUCACCCAUGUAGGAAACAAGCAGAGUACCAAAAAGUAGAAGGGUCAUGGA [Ruby 30] (Eterna round: R96, puzzle: Exclusion 3) | 53.6 | – | – | – | – | –
AUUAGCUGAGGAUAUGCAGCUUUGUUCGUCGAGUGAAAAGAACAUGAGGAUCACCCAUGUAGAAGGCAGUUGAC [Raargexe] (puzzle: Exclusion 2) | – | – | – | 14.8 | – | –
AAGUAGUCUGUGAGGAUAUUGGUGGAAUGACACAUUAAGAAGGUACAUGAGGAUCACCCAUGUGGGUAAAGACG [Brourd's EX4 #24] (Eterna round: R97, puzzle: Brourd's mod of Exclusion 4) | – | 115 | 109 | – | – | –
UGUUGUCGCGUAGGAUAUUGUCAACAGGCAGUAGGAUAUGCGAAAGCAGAAGGACCGCCAACAGGCGAGAAGGACGGGACAACU [pwkr exNG2 2xF7 2xFMN.6] (Eterna round: R96, puzzle: Exclusion NG 2) | 35.6 | 44.3 | 138 | – | – | –
AAAUAGCAAGUGUGAUCCUACAUGAGGAUCACCCAUGUGUUCGUCUUAUUUGAAGACAACACAAAAGUGUUGUCUUA [Omei Mir OFFv1 B2] (Eterna round: R97, puzzle: Sensor, turn-off variant 1) | – | 32.9 | 24.6 | – | – | –
AACAGUCUGGAGGAUAUGCUGGAUUAAAAUCUGGCAGAAGGCUGGACAUGAGGAUCACCCAUGUAAAUACUACC [Omei Ex6 A2a] (Eterna round: R97, puzzle: Exclusion 6) | – | 73.1 | 24.8 | – | – | –
UCUAGGAGAGGAUAUACAUGAGGAUCACCCAUGUGCAUGAUCAGGCGUCAGUCGCACCGUAGAAGGUUCCAGAA [Eternabot (L2) Solution 40] (Eterna round: R97, puzzle: Exclusion 3) | – | 89.9 | 47 | – | – | –

Sequence | apparent KD of MS2 coat protein [1] [nM] | apparent KD of MS2 coat protein (input ligand: FMN 200 uM) [nM] | apparent KD of MS2 coat protein (input ligand: none) [nM] | apparent KD of MS2 coat protein [2] [nM] | apparent KD of MS2 coat protein [3] [nM] | apparent KD of MS2 coat protein [4] [nM]
ACAUGAGGAUCACCCAUGUCCGGUUGGUCUGUUCCGGCUGUCGAGGAUAUAGUCCGGUGUUCGCGCUAGAAGGCGAGGGCUGGA [Aenatbe mod 47] (Eterna round: R96, puzzle: Exclusion NG 3) | 227 | 1180 | 397 | – | – | –
GAAGAAAAGGCAGGAUAUCAGAAACACAUGAUAAGGAGAUGCAACAUGAGGAUCACCCAUGUAAAUGAGAAGGGCCGCCCUUCC [Arbiis] (Eterna round: R96, puzzle: Exclusion NG 2) | 28 | – | – | – | – | –
GGGAUGUCAGGAUAUGAUUAGCACGGCGGUAGCCGCGUUACUUAGAAGGGACAUGAGGAUCACCCAUGUACCGA [EX4 B.6] (Eterna round: R97, puzzle: Exclusion 4) | – | 18.6 | 16.9 | – | – | –
GCGCACCUACCAAAAGGUAGGUCAACAUGAGGAUCACCCAUGUAGGAUAUCGAUUGCUUUGCAGUCGAGAAGGACGUGAUGCGC [JL ENG3 3.80 Mod 15] (Eterna round: R96, puzzle: Exclusion NG 3) | 24.5 | 38 | 34.3 | – | – | –
UAGUUAGCGUGUGGCACAUACAUGAGGAUCACCCAUGUUAGCUUAUAUAUUGCUCGUCUUAUAACAACACUUAACUU [Mod JX-Electric-eye6] (Eterna round: R97, puzzle: Sensor, turn-off variant 1) | – | 18.7 | 19 | – | – | –
CUGGUCCGAGGAUAUAUUUAGUGAAACAUGAGGAUCACCCAUGUUAUUAGAUGGAUGUAAAUAGAAGGCGGACUAG [Mat - Exclusion 5 - JL mod - D63] (puzzle: Exclusion 5) | – | – | – | 20.4 | 18.5 | 23.8
AGAGAGUCAGGAUAUCGAAGGGAGAGAAAAGGAGAGAGGUACGAGAAGGGACAUGAGGAUCACCCAUGUAGGUG [JR_Exclusion4)Sub015] (puzzle: Exclusion 4) | – | – | – | 413 | 279 | 622
CUGGUCCGAGGAUAUAUUAAGUGAUACAUGAGGAUCACCCAUGUAAUUUGAUGGAAGUAAAUAGAAGGCGGACUAG [Mat - Exclusion 5 - JL mod - D45] (puzzle: Exclusion 5) | – | – | – | 43 | 34.2 | 74
UUCUUUGUUGUGAGGAUAUCGUAUUCUUUUUGUUACGAGAAGGCACAUGAGGAUCACCCAUGUUUCUUGAUGUU [JR_BMOE4_Sub068] (puzzle: Brourd's mod of Exclusion 4) | – | – | – | 16.7 | – | –
GUAGAGUCAGGAUAUACGAGAUCGAAAGAUCGGCGAUCCAUACAUGAGGAUCACCCAUGUAGAAGGGACUCUAC [ChP 11-04-2015 #5] (puzzle: Exclusion 2) | – | – | – | 14.2 | – | –
AAGGCGGUAGGAUAUACAUGAGGAUCACCCAUGUGUCGCAUAAUCACAGCAGUACUCUGUAGAAGGACCGUCAG [Eternabot (L2) Solution 100] (Eterna round: R97, puzzle: Exclusion 3) | – | 457 | 114 | – | – | –
UCGUGAUUAGAGGAUAUAUUUUGAGUCAGAACAAUAGAAGGCUAAACAUGAGGAUCACCCAUGUAUGUGUAAAA [JR_Ex6_Sub063] (Eterna round: R97, puzzle: Exclusion 6) | – | 184 | 26.9 | – | – | –
ACUUGUGUUGAGGAUAUGCGCCGGCUCGCUGGCGCAGAAGGCGGCACAUGAGGAUCACCCAUGUCAGUUCGCGC [salish99_ex6_r004_001] (Eterna round: R97, puzzle: Exclusion 6) | – | 138 | 16.8 | – | – | –
UCUCGCGGGCAAGGAUAUCCUACGCUGUUCUGGCCCGUGUAUGUUACAUGAGGAUCACCCAUGUGGGAGAAGGUGCACCAGGGC [Design 40] (Eterna round: R96, puzzle: Exclusion NG 2) | 39.3 | 83.3 | 76 | – | – | –
GCUCACGCAGGAUAUACAUGAGGAUCACCCAUGUUCGAAGGGCGCGGGUACAAAGUCUGUAGAAGGGCGAAAAU [Getiin] (Eterna round: R97, puzzle: Exclusion 3) | – | 26.1 | 19.8 | – | – | –
UAGGUGUGAGGAUAUGGUAAAGAUAAGAUGAUAAAAGAACUCCAGAAGGCACAUGAGGAUCACCCAUGUAGAUG [Mat - Exclusion 4 - Mod of JL - D34] (puzzle: Exclusion 4) | – | – | – | 22.8 | 62.9 | 25.8
GACCUAUAGGUAGGAUAUCAUUGCGAUUAGCUAUGAGAAGGACCACAUGAGGAUCACCCAUGUCCUCUAAUUAGCCAUUUGGUC [Fiskers ExNg1 - 8] (Eterna round: R96, puzzle: Exclusion NG 1) | 338 | – | – | – | – | –
